This passage reports Kd results from publication PMC10328077 (2023).

The labels stand for the following.
B1: recombinant N-terminal fragment apoE2(1–165) (domain or fragment)
chain: KVEQAVETEPEPELRQQTEWQSGQRWELALGRFWDYLRWVQTLSEQVQEELLSSQVTQELRALMDETMKELKAYKSELEEQLTPVAEETRARLSKELQAAQARLGADMEDVCGRLVQYRGEVQAMLGQSTEELRVRLASHLRKLRKRLLRDADDLQKCLAVYQAG
modifications: NT647 dye (Monolith RED-NHS labelling kit) in the MST; unlabelled in the ELISA and the cross-linking

Test [1] concerns the target FH402H, isolated from plasma of FH402H homozygous healthy donors (human, UniProt P08603 19-1231, Y402H). The test is described as follows: MST.
Test [2] addresses B1. In words: MST.

For orientation: Kd means the equilibrium constant for the complex coming apart. On to B1, for which binding in test [1] was characterised by a dissociation constant (Kd) of 400 nM.

B2: FH402Y, isolated from plasma of FH402Y homozygous healthy donors (natural protein)
chain: EDCNELPPRRNTEILTGSWSDQTYPEGTQAIYKCRPGYRSLGNVIMVCRKGEWVALNPLRKCQKRPCGHPGDTPFGTFTLTGGNVFEYGVKAVYTCNEGYQLLGEINYRECDTDGWTNDIPICEVVKCLPVTAPENGKIVSSAMEPDREYHFGQAVRFVCNSGYKIEGDEEMHCSDDGFWSKEKPKCVEISCKSPDVINGSPISQKIIYKENERFQYKCNMGYEYSERGDAVCTESGWRPLPSCEEKSCDNPYIPNGDYSPLRIKHRTGDEITYQCRNGFYPATRGNTAKCTSTGWIPAPRCTLKPCDYPDIKHGGLYHENMRRPYFPVAVGKYYSYYCDEHFETPSGSYWDHIHCTQDGWSPAVPCLRKCYFPYLENGYNQNYGRKFVQGKSIDVACHPGYALPKAQTTVTCMENGWSPTPRCIRVKTCSKSSIDIENGFISESQYTYALKEKAKYQCKLGYVTADGETSGSITCGKDGWSAQPTCIKSCDIPVFMNARTKNDFTWFKLNDTLDYECHDGYESNTGSTTGSIVCGYNGWSDLPICYERECELPKIDVHLVPDRKKDQYKVGEVLKFSCKPGFTIVGPNSVQCYHFGLSPDLPICKEQVQSCGPPPELLNGNVKEKTKEEYGHSEVVEYYCNPRFLMKGPNKIQCVDGEWTTLPVCIVEESTCGDIPELEHGWAQLSSPPYYYGDSVEFNCSESFTMIGHRSITCIHGVWTQLPQCVAIDKLKKCKSSNLIILEEHLKNKKEFDHNSNIRYRCRGKEGWIHTVCINGRWDPEVNCSMAQIQLCPPPPQIPNSHNMTTTLNYRDGEKVSVLCQENYLIQEGEEITCKDGRWQSIPLCVEKIPCSQPPQIEHGTINSSRSSQESYAHGTKLSYTCEGGFRISEENETTCYMGKWSSPPQCEGLPCKSPPEISHGVVAHMSDSYQYGEEVTYKCFEGFGIDGPAIAKCLGEKWSHPPSCIKTDCLSLPSFENAIPMGEKKDVYKAGEQVTYTCATYYKMDGASNVTCINSRWTGRPTCRDTSCVNPPTVQNAYIVSRQMSKYPSGERVRYQCRSPYEMFGDEEVMCLNGNWTEPPQCKDSTGKCGPPPPIDNGDITSFPLSVYAPASSVEYQCQNLYQLEGNKRITCRNGQWSEPPKCLHPCVISREIMENYNIALRWTAKQKLYSRTGESVEFVCKRGYRLSSRSHTLRTTCWDGKLEYPTCAKR
On to B2, for which, in test [2], the Kd turned out to be 200 nM.
